Measurements reported in article PMC8755798 (Nature Communications, 2022).

Target: the molecule itself
Test: cryo-EM structure

B1: mycobacterial proteasome ATPase (Mpa), Mycobacterium tuberculosis, wild type (enzyme)
chain: MGESERSEAFGIPRDSPLSSGDAAELEQLRREAAVLREQLENAVGSHAPTRSARDIHQLEARIDSLAARNSKLMETLKEARQQLLALREEVDRLGQPPSGYGVLLATHDDDTVDVFTSGRKMRLTCSPNIDAASLKKGQTVRLNEALTVVEAGTFEAVGEISTLREILADGHRALVVGHADEERVVWLADPLIAEDLPDGLPEALNDDTRPRKLRPGDSLLVDTKAGYAFERIPKAEVEDLVLEEVPDVSYADIGGLSRQIEQIRDAVELPFLHKELYREYSLRPPKGVLLYGPPGCGKTLIAKAVANSLAKKMAEVRGDDAHEAKSYFLNIKGPELLNKFVGETERHIRLIFQRAREKASEGTPVIVFFDEMDSIFRTRGTGVSSDVETTVVPQLLSEIDGVEGLENVIVIGASNREDMIDPAILRPGRLDVKIKIERPDAEAAQDIYSKYLTEFLPVHADDLAEFDGDRSACIKAMIEKVVDRMYAEIDDNRFLEVTYANGDKEVMYFKDFNSGAMIQNVVDRAKKNAIKSVLETGQPGLRIQHLLDSIVDEFAENEDLPNTTNPDDWARISGKKGERIVYIRTLVTGKSSSASRAIDTESNLGQYL
- stoichiometry N: 6
